Source: patent US20220412960A1

Target: PAR-1 receptor on human platelets (human) (UniProt P25116)
Assay: cell-based or functional assay

PAR-1 receptor on human platelets (human), sequence (P25116 42-425): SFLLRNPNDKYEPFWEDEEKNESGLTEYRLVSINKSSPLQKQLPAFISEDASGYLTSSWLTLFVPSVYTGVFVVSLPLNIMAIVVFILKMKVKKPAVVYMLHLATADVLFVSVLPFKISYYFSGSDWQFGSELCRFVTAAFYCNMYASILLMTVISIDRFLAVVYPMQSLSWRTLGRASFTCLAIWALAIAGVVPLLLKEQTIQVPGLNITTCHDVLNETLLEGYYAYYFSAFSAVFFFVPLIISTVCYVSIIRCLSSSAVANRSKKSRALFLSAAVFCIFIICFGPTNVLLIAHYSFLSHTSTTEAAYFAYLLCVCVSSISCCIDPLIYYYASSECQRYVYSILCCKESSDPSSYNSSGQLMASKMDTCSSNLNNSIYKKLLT

**Q.** “thrombin receptor agonist peptide TRAP-6” was tested. Which platelet aggregation, light transmission aggregometry, washed platelets of sepsis patients at ICU admission, 10 µM TRAP-6 did it give?
**A.** > 21.2%

**Q.** What about the platelet aggregation, light transmission aggregometry, washed platelets of sepsis patients at ICU admission, 10 µM TRAP-6 (mean) of the same substance?
**A.** 34.2%
